From the Human Domainome abundance scans (Beltran et al. 2025)
± gives the uncertainty stated by the source.

B1: Homeobox protein cut-like 2, residues 895 to 963; numbered along this chain, O14529 (parent)
chain: EVDTLELTRQVKEKLAKNGICQRIFGEKVLGLSQGSVSDMLSRPKPWSKLTQKGREPFIRMQLWLSDQL

Variants of: B1
Experiment: abundance fitness (aPCA) (normalised: wild type 0, dead -1); higher = more abundant; growth selection in yeast, the domain comes from the species named
Settings: Homo sapiens

Variant	abundance fitness
EVDTLELTRQVKEKLAKNGICQRIFGEKMLGLSQGSVSDMLSRPKPWSKLTQKGREPFIRMQLWLSDQL [V29M]	-0.104 ± 0.034
EVDTLELTRQVKEKLAKNGICQRIFGEKFLGLSQGSVSDMLSRPKPWSKLTQKGREPFIRMQLWLSDQL [V29F]	-0.174 ± 0.048
EVDTLELTRQVKEKLAKNGICQRIFGEKLLGLSQGSVSDMLSRPKPWSKLTQKGREPFIRMQLWLSDQL [V29L]	-0.108 ± 0.029
EVDTLELTRQVKEKLAKNGICQRIFGEKILGLSQGSVSDMLSRPKPWSKLTQKGREPFIRMQLWLSDQL [V29I]	0.124 ± 0.051
EVDTLELTRQVKEKLAKNGICQRIFGEKWLGLSQGSVSDMLSRPKPWSKLTQKGREPFIRMQLWLSDQL [V29W]	-0.113 ± 0.044
EVDTLELTRQVKEKLAKNGICQRIFGEKYLGLSQGSVSDMLSRPKPWSKLTQKGREPFIRMQLWLSDQL [V29Y]	-0.145 ± 0.052
EVDTLELTRQVKEKLAKNGICQRIFGEKNLGLSQGSVSDMLSRPKPWSKLTQKGREPFIRMQLWLSDQL [V29N]	-0.551 ± 0.055
EVDTLELTRQVKEKLAKNGICQRIFGEKQLGLSQGSVSDMLSRPKPWSKLTQKGREPFIRMQLWLSDQL [V29Q]	-0.381 ± 0.039
EVDTLELTRQVKEKLAKNGICQRIFGEKSLGLSQGSVSDMLSRPKPWSKLTQKGREPFIRMQLWLSDQL [V29S]	-0.325 ± 0.034
EVDTLELTRQVKEKLAKNGICQRIFGEKGLGLSQGSVSDMLSRPKPWSKLTQKGREPFIRMQLWLSDQL [V29G]	-0.173 ± 0.039
EVDTLELTRQVKEKLAKNGICQRIFGEKCLGLSQGSVSDMLSRPKPWSKLTQKGREPFIRMQLWLSDQL [V29C]	-0.104 ± 0.064
EVDTLELTRQVKEKLAKNGICQRIFGEKHLGLSQGSVSDMLSRPKPWSKLTQKGREPFIRMQLWLSDQL [V29H]	-0.394 ± 0.054
EVDTLELTRQVKEKLAKNGICQRIFGEKRLGLSQGSVSDMLSRPKPWSKLTQKGREPFIRMQLWLSDQL [V29R]	-0.121 ± 0.031
EVDTLELTRQVKEKLAKNGICQRIFGEKDLGLSQGSVSDMLSRPKPWSKLTQKGREPFIRMQLWLSDQL [V29D]	-0.476 ± 0.07
EVDTLELTRQVKEKLAKNGICQRIFGEKKLGLSQGSVSDMLSRPKPWSKLTQKGREPFIRMQLWLSDQL [V29K]	-0.129 ± 0.037
EVDTLELTRQVKEKLAKNGICQRIFGEKALGLSQGSVSDMLSRPKPWSKLTQKGREPFIRMQLWLSDQL [V29A]	-0.36 ± 0.043
EVDTLELTRQVKEKLAKNGICQRIFGEKTLGLSQGSVSDMLSRPKPWSKLTQKGREPFIRMQLWLSDQL [V29T]	-0.258 ± 0.034
EVDTLELTRQVKEKLAKNGICQRIFGEKELGLSQGSVSDMLSRPKPWSKLTQKGREPFIRMQLWLSDQL [V29E]	-0.535 ± 0.055
EVDTLELTRQVKEKLAKNGICQRIFGEKPLGLSQGSVSDMLSRPKPWSKLTQKGREPFIRMQLWLSDQL [V29P]	-0.345 ± 0.042
EVDTLELTRQVKEKLAKNGICQRIFGEKVLCLSQGSVSDMLSRPKPWSKLTQKGREPFIRMQLWLSDQL [G31C]	-0.257 ± 0.044
EVDTLELTRQVKEKLAKNGICQRIFGEKVLALSQGSVSDMLSRPKPWSKLTQKGREPFIRMQLWLSDQL [G31A]	-0.226 ± 0.042
EVDTLELTRQVKEKLAKNGICQRIFGEHVLGLSQGSVSDMLSRPKPWSKLTQKGREPFIRMQLWLSDQL [K28H]	-0.128 ± 0.054
EVDTLELTRQVKEKLAKNGICQRIFGEEVLGLSQGSVSDMLSRPKPWSKLTQKGREPFIRMQLWLSDQL [K28E]	-0.026 ± 0.043
EVDTLELTRQVKEKLAKNGICQRIFGEFVLGLSQGSVSDMLSRPKPWSKLTQKGREPFIRMQLWLSDQL [K28F]	-0.327 ± 0.038
EVDTLELTRQVKEKLAKNGICQRIFGENVLGLSQGSVSDMLSRPKPWSKLTQKGREPFIRMQLWLSDQL [K28N]	-0.242 ± 0.049
EVDTLELTRQVKEKLAKNGICQRIFGEVVLGLSQGSVSDMLSRPKPWSKLTQKGREPFIRMQLWLSDQL [K28V]	-0.184 ± 0.035

Variant	abundance fitness
EVDTLELTRQVKEKLAKNGICQRIFGEIVLGLSQGSVSDMLSRPKPWSKLTQKGREPFIRMQLWLSDQL [K28I]	-0.502 ± 0.055
EVDTLELTRQVKEKLAKNGICQRIFGEYVLGLSQGSVSDMLSRPKPWSKLTQKGREPFIRMQLWLSDQL [K28Y]	-0.296 ± 0.047
EVDTLELTRQVKEKLAKNGICQRIFGEMVLGLSQGSVSDMLSRPKPWSKLTQKGREPFIRMQLWLSDQL [K28M]	-0.155 ± 0.032
EVDTLELTRQVKEKLAKNGICQRIFGERVLGLSQGSVSDMLSRPKPWSKLTQKGREPFIRMQLWLSDQL [K28R]	-0.1 ± 0.032
EVDTLELTRQVKEKLAKNGICQRIFGETVLGLSQGSVSDMLSRPKPWSKLTQKGREPFIRMQLWLSDQL [K28T]	-0.078 ± 0.033
EVDTLELTRQVKEKLAKNGICQRIFGEGVLGLSQGSVSDMLSRPKPWSKLTQKGREPFIRMQLWLSDQL [K28G]	-0.184 ± 0.035
EVDTLELTRQVKEKLAKNGICQRIFGELVLGLSQGSVSDMLSRPKPWSKLTQKGREPFIRMQLWLSDQL [K28L]	-0.335 ± 0.027
EVDTLELTRQVKEKLAKNGICQRIFGEQVLGLSQGSVSDMLSRPKPWSKLTQKGREPFIRMQLWLSDQL [K28Q]	0.012 ± 0.033
EVDTLELTRQVKEKLAKNGICQRIFGESVLGLSQGSVSDMLSRPKPWSKLTQKGREPFIRMQLWLSDQL [K28S]	-0.116 ± 0.028
EVDTLELTRQVKEKLAKNGICQRIFGECVLGLSQGSVSDMLSRPKPWSKLTQKGREPFIRMQLWLSDQL [K28C]	-0.293 ± 0.055
EVDTLELTRQVKEKLAKNGICQRIFGEPVLGLSQGSVSDMLSRPKPWSKLTQKGREPFIRMQLWLSDQL [K28P]	-0.6 ± 0.04
EVDTLELTRQVKEKLAKNGICQRIFGEWVLGLSQGSVSDMLSRPKPWSKLTQKGREPFIRMQLWLSDQL [K28W]	-0.263 ± 0.037
EVDTLELTRQVKEKLAKNGICQRIFGEAVLGLSQGSVSDMLSRPKPWSKLTQKGREPFIRMQLWLSDQL [K28A]	-0.19 ± 0.04
EVDTLELTRQVKEKLAKNGICQRIFYEKVLGLSQGSVSDMLSRPKPWSKLTQKGREPFIRMQLWLSDQL [G26Y]	-0.169 ± 0.042
EVDTLELTRQVKEKLAKNGICQRIFTEKVLGLSQGSVSDMLSRPKPWSKLTQKGREPFIRMQLWLSDQL [G26T]	-0.221 ± 0.063
EVDTLELTRQVKEKLAKNGICQRIFSEKVLGLSQGSVSDMLSRPKPWSKLTQKGREPFIRMQLWLSDQL [G26S]	-0.035 ± 0.033
EVDTLELTRQVKEKLAKNGICQRIFREKVLGLSQGSVSDMLSRPKPWSKLTQKGREPFIRMQLWLSDQL [G26R]	-0.295 ± 0.042
EVDTLELTRQVKEKLAKNGICQRIFWEKVLGLSQGSVSDMLSRPKPWSKLTQKGREPFIRMQLWLSDQL [G26W]	-0.591 ± 0.035
EVDTLELTRQVKEKLAKNGICQRIFQEKVLGLSQGSVSDMLSRPKPWSKLTQKGREPFIRMQLWLSDQL [G26Q]	-0.584 ± 0.12
EVDTLELTRQVKEKLAKNGICQRIFVEKVLGLSQGSVSDMLSRPKPWSKLTQKGREPFIRMQLWLSDQL [G26V]	-0.263 ± 0.037
EVDTLELTRQVKEKLAKNGICQRIFGEKVMGLSQGSVSDMLSRPKPWSKLTQKGREPFIRMQLWLSDQL [L30M]	-0.178 ± 0.036
EVDTLELTRQVKEKLAKNGICQRIFGEKVQGLSQGSVSDMLSRPKPWSKLTQKGREPFIRMQLWLSDQL [L30Q]	-0.423 ± 0.061
EVDTLELTRQVKEKLAKNGICQRIFGEKVRGLSQGSVSDMLSRPKPWSKLTQKGREPFIRMQLWLSDQL [L30R]	-0.18 ± 0.037
EVDTLELTRQVKEKLAKNGICQRIFGEKVWGLSQGSVSDMLSRPKPWSKLTQKGREPFIRMQLWLSDQL [L30W]	-0.21 ± 0.033
EVDTLELTRQVKEKLAKNGICQRIFGEKVIGLSQGSVSDMLSRPKPWSKLTQKGREPFIRMQLWLSDQL [L30I]	-0.301 ± 0.049
EVDTLELTRQVKEKLAKNGICQRIFGEKVNGLSQGSVSDMLSRPKPWSKLTQKGREPFIRMQLWLSDQL [L30N]	-0.425 ± 0.063

Variant	abundance fitness
EVDTLELTRQVKEKLAKNGICQRIFGEKVGGLSQGSVSDMLSRPKPWSKLTQKGREPFIRMQLWLSDQL [L30G]	-0.387 ± 0.032
EVDTLELTRQVKEKLAKNGICQRIFGEKVTGLSQGSVSDMLSRPKPWSKLTQKGREPFIRMQLWLSDQL [L30T]	-0.536 ± 0.11
EVDTLELTRQVKEKLAKNGICQRIFGEKVKGLSQGSVSDMLSRPKPWSKLTQKGREPFIRMQLWLSDQL [L30K]	-0.178 ± 0.038
EVDTLELTRQVKEKLAKNGICQRIFGEKVFGLSQGSVSDMLSRPKPWSKLTQKGREPFIRMQLWLSDQL [L30F]	-0.186 ± 0.038
EVDTLELTRQVKEKLAKNGICQRIFGEKVYGLSQGSVSDMLSRPKPWSKLTQKGREPFIRMQLWLSDQL [L30Y]	-0.472 ± 0.05
EVDTLELTRQVKEKLAKNGICQRIFGEKVCGLSQGSVSDMLSRPKPWSKLTQKGREPFIRMQLWLSDQL [L30C]	-0.234 ± 0.043
EVDTLELTRQVKEKLAKNGICQRIFGEKVVGLSQGSVSDMLSRPKPWSKLTQKGREPFIRMQLWLSDQL [L30V]	-0.275 ± 0.03
EVDTLELTRQVKEKLAKNGICQRIFGEKVAGLSQGSVSDMLSRPKPWSKLTQKGREPFIRMQLWLSDQL [L30A]	-0.447 ± 0.083
EVDTLELTRQVKEKLAKNGICQRIFGEKVDGLSQGSVSDMLSRPKPWSKLTQKGREPFIRMQLWLSDQL [L30D]	-0.588 ± 0.048
EVDTLELTRQVKEKLAKNGICQRIFGEKVSGLSQGSVSDMLSRPKPWSKLTQKGREPFIRMQLWLSDQL [L30S]	-0.418 ± 0.049
EVDTLELTRQVKEKLAKNGICQRIFGTKVLGLSQGSVSDMLSRPKPWSKLTQKGREPFIRMQLWLSDQL [E27T]	-0.149 ± 0.044
EVDTLELTRQVKEKLAKNGICQRIFGMKVLGLSQGSVSDMLSRPKPWSKLTQKGREPFIRMQLWLSDQL [E27M]	-0.14 ± 0.027
EVDTLELTRQVKEKLAKNGICQRIFGSKVLGLSQGSVSDMLSRPKPWSKLTQKGREPFIRMQLWLSDQL [E27S]	-0.006 ± 0.032
EVDTLELTRQVKEKLAKNGICQRIFGQKVLGLSQGSVSDMLSRPKPWSKLTQKGREPFIRMQLWLSDQL [E27Q]	-0.007 ± 0.033
EVDTLELTRQVKEKLAKNGICQRIFGGKVLGLSQGSVSDMLSRPKPWSKLTQKGREPFIRMQLWLSDQL [E27G]	-0.072 ± 0.033
EVDTLELTRQVKEKLAKNGICQRIFGIKVLGLSQGSVSDMLSRPKPWSKLTQKGREPFIRMQLWLSDQL [E27I]	-0.128 ± 0.036
EVDTLELTRQVKEKLAKNGICQRIFGWKVLGLSQGSVSDMLSRPKPWSKLTQKGREPFIRMQLWLSDQL [E27W]	-0.091 ± 0.032
EVDTLELTRQVKEKLAKNGICQRIFGPKVLGLSQGSVSDMLSRPKPWSKLTQKGREPFIRMQLWLSDQL [E27P]	-0.106 ± 0.041
EVDTLELTRQVKEKLAKNGICQRIFGDKVLGLSQGSVSDMLSRPKPWSKLTQKGREPFIRMQLWLSDQL [E27D]	-0.162 ± 0.046
EVDTLELTRQVKEKLAKNGICQRIFGFKVLGLSQGSVSDMLSRPKPWSKLTQKGREPFIRMQLWLSDQL [E27F]	-0.173 ± 0.031
EVDTLELTRQVKEKLAKNGICQRIFGVKVLGLSQGSVSDMLSRPKPWSKLTQKGREPFIRMQLWLSDQL [E27V]	-0.18 ± 0.025
EVDTLELTRQVKEKLAKNGICQRIFGYKVLGLSQGSVSDMLSRPKPWSKLTQKGREPFIRMQLWLSDQL [E27Y]	-0.191 ± 0.046
EVDTLELTRQVKEKLAKNGICQRIFGNKVLGLSQGSVSDMLSRPKPWSKLTQKGREPFIRMQLWLSDQL [E27N]	-0.108 ± 0.052
EVDTLELTRQVKEKLAKNGICQRIFGAKVLGLSQGSVSDMLSRPKPWSKLTQKGREPFIRMQLWLSDQL [E27A]	-0.063 ± 0.035
EVDTLELTRQVKEKLAKNGICQRIFGRKVLGLSQGSVSDMLSRPKPWSKLTQKGREPFIRMQLWLSDQL [E27R]	-0.019 ± 0.032
EVDTLELTRQVKEKLAKNGICQRIFGKKVLGLSQGSVSDMLSRPKPWSKLTQKGREPFIRMQLWLSDQL [E27K]	0.001 ± 0.032
